Experimental data reported in US20210163584A1 (Sanofi, published 2021).
Like-named read-outs stand apart in the source and are kept apart here. Each block holds one binder with its values, some of them ahead of it.

Key:
[1] = target: T1, TGF-β1 (UniProt P01137 279-390); assay: SPR (Biacore); amine-coupled TGF-β1 on chip, antibody as analyte, kinetic fit
T1 construct: also called transforming growth factor-beta 1
From the text: Recombinant mAb1-D10 fusion variants of Example 7 were also quantitatively assessed for TGF-β1 binding using surface plasmon resonance (SPR) as detected by Biacore. Samples containing purified variants were passed over a sensor chip with amine-coupled TGF-β1 to determine the equilibrium constant, KD. A target immobilization level of less than 100 response units (RU) of TGF-β1 was chosen to minimize the potential for avidity effects arising from binding adjacent TGF-β1 molecules on the chip. The level of immobilization was determined by the change in response units after NHS/EDC activation of the chip surface, but before quenching with ethanolamine. The fusion variants, WT fusion variant F1, and mAb1 control were diluted to 30, 10, 3, 1 and 0.37 nM in HBS-EP buffer and passed over the TGF-β1 chip at 30 μL/min for 3 min, followed by 5 min dissociation in the same buffer. Between runs, the chip surface was regenerated to remove any bound antibody by passing two 30 sec injections of 40 mM HCl over the chip at a flow rate of 75 μL/min. […] Unexpectedly, the maximum signal (RU) elicited by the fusion variants decreased with increasing number of peptides, with variant F17 (D10-HC-D10/D10-LC, PAR=6) showing the lowest signal. […] A possible explanation of this decline may reflect electrostatic repulsion between the chip matrix (carboxymethyl dextran) and the negatively charged D10 peptides.

[2] = target: T1, TGF-β1; assay: cell-based or functional assay
[3] = target: T1, TGF-β1; assay: cell-based or functional assay; remark: listed apart in the source

T1 sequence (P01137 279-390 limits assumed): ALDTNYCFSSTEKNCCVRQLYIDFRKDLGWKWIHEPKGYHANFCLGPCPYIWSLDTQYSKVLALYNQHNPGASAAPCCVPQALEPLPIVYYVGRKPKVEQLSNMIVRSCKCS

B2: mAb1 F6 (antibody, mouse IgG1, kappa)
heavy: HVQLQQSGPELVRPGASVKLSCKASGYIFITYWMNWVKQRPGQGLEWIGQIFPASGSTNYNEMFEGKATLTVDTSSSTAYMQLSSLTSEDSAVYYCARGDGNYALDAMDYWGQGTSVTVSSAKTTPPSVYPLAPGSAAQTNSMVTLGCLVKGYFPEPVTVTWNSGSLSSGVHTFPAVLQSDLYTLSSSVTVPSSTWPSQTVTCNVAHPASSTKVDKKIVPRDCGCKPCICTVPEVSSVFIFPPKPKDVLTITLTPKVTCVVVDISKDDPEVQFSWFVDDVEVHTAQTKPREEQFNSTFRSVSELPIMHQDWLNGKEFKCRVNSAAFPAPIEKTISKTKGRPKAPQVYTIPPPKEQMAKDKVSLTCMITDFFPEDITVEWQWNGQPAENYKNTQPIMDTDGSYFVYSKLNVQKSNWEAGNTFTCSVLHEGLHNHHTEKSLSHSPGKDDDDDDDDDD
light: NIVLTQSPASLAVSLGQRATISCRASESVDSYGNSFMHWYQQKSGQPPKLLIYLASNLESGVPARFSGSGSRTDFTLTIDPVEADDAATYYCQQNNEDPLTFGAGTKLELKRADAAPTVSIFPPSSEQLTSGGASVVCFLNNFYPKDINVKWKIDGSERQNGVLNSWTDQDSKDSTYSMSSTLTLTKDEYERHNSYTCEATHKTSTSPIVKSFNRNEC
notes: Mouse IgG1 fusion variant, PAR 2; also called HC-D10: WT-LC; mAb1-D10
- Kd [1]: 4.58 nM
- koff [1]: 0.00084 s⁻¹
- kon [1]: 182000 M⁻¹ s⁻¹
- IC50 (read off the curve); IL-11 release by A549 cells in response to TGF-β1 [2]: ~0.2 nM

B3: mAb1 F2 (antibody, mouse IgG1, kappa)
heavy: HVQLQQSGPELVRPGASVKLSCKASGYIFITYWMNWVKQRPGQGLEWIGQIFPASGSTNYNEMFEGKATLTVDTSSSTAYMQLSSLTSEDSAVYYCARGDGNYALDAMDYWGQGTSVTVSSAKTTPPSVYPLAPGSAAQTNSMVTLGCLVKGYFPEPVTVTWNSGSLSSGVHTFPAVLQSDLYTLSSSVTVPSSTWPSQTVTCNVAHPASSTKVDKKIVPRDCGCKPCICTVPEVSSVFIFPPKPKDVLTITLTPKVTCVVVDISKDDPEVQFSWFVDDVEVHTAQTKPREEQFNSTFRSVSELPIMHQDWLNGKEFKCRVNSAAFPAPIEKTISKTKGRPKAPQVYTIPPPKEQMAKDKVSLTCMITDFFPEDITVEWQWNGQPAENYKNTQPIMDTDGSYFVYSKLNVQKSNWEAGNTFTCSVLHEGLHNHHTEKSLSHSPGK
light: DDDDDDDDDDNIVLTQSPASLAVSLGQRATISCRASESVDSYGNSFMHWYQQKSGQPPKLLIYLASNLESGVPARFSGSGSRTDFTLTIDPVEADDAATYYCQQNNEDPLTFGAGTKLELKRADAAPTVSIFPPSSEQLTSGGASVVCFLNNFYPKDINVKWKIDGSERQNGVLNSWTDQDSKDSTYSMSSTLTLTKDEYERHNSYTCEATHKTSTSPIVKSFNRNEC
notes: Mouse IgG1 fusion variant, PAR 2; also called WT-HC: D10-LC
- Kd [1]: 6.01 nM
- koff [1]: 0.001 s⁻¹
- kon [1]: 166000 M⁻¹ s⁻¹
- IC50 (read off the curve); IL-11 release by A549 cells in response to TGF-β1 [2]: ~0.2 nM

B5: mAb1 F11 (antibody, mouse IgG1, kappa)
heavy: DDDDDDDDDDHVQLQQSGPELVRPGASVKLSCKASGYIFITYWMNWVKQRPGQGLEWIGQIFPASGSTNYNEMFEGKATLTVDTSSSTAYMQLSSLTSEDSAVYYCARGDGNYALDAMDYWGQGTSVTVSSAKTTPPSVYPLAPGSAAQTNSMVTLGCLVKGYFPEPVTVTWNSGSLSSGVHTFPAVLQSDLYTLSSSVTVPSSTWPSQTVTCNVAHPASSTKVDKKIVPRDCGCKPCICTVPEVSSVFIFPPKPKDVLTITLTPKVTCVVVDISKDDPEVQFSWFVDDVEVHTAQTKPREEQFNSTFRSVSELPIMHQDWLNGKEFKCRVNSAAFPAPIEKTISKTKGRPKAPQVYTIPPPKEQMAKDKVSLTCMITDFFPEDITVEWQWNGQPAENYKNTQPIMDTDGSYFVYSKLNVQKSNWEAGNTFTCSVLHEGLHNHHTEKSLSHSPGK
light: B2 light
notes: Mouse IgG1 fusion variant, PAR 2; also called D10-HC: WT-LC
- Kd [1]: 5.62 nM
- koff [1]: 0.00092 s⁻¹
- kon [1]: 164000 M⁻¹ s⁻¹
- IC50 (read off the curve); IL-11 release by A549 cells in response to TGF-β1 [3]: ~0.07 nM

B8: mAb1 F17 (antibody, mouse IgG1, kappa)
heavy: DDDDDDDDDDHVQLQQSGPELVRPGASVKLSCKASGYIFITYWMNWVKQRPGQGLEWIGQIFPASGSTNYNEMFEGKATLTVDTSSSTAYMQLSSLTSEDSAVYYCARGDGNYALDAMDYWGQGTSVTVSSAKTTPPSVYPLAPGSAAQTNSMVTLGCLVKGYFPEPVTVTWNSGSLSSGVHTFPAVLQSDLYTLSSSVTVPSSTWPSQTVTCNVAHPASSTKVDKKIVPRDCGCKPCICTVPEVSSVFIFPPKPKDVLTITLTPKVTCVVVDISKDDPEVQFSWFVDDVEVHTAQTKPREEQFNSTFRSVSELPIMHQDWLNGKEFKCRVNSAAFPAPIEKTISKTKGRPKAPQVYTIPPPKEQMAKDKVSLTCMITDFFPEDITVEWQWNGQPAENYKNTQPIMDTDGSYFVYSKLNVQKSNWEAGNTFTCSVLHEGLHNHHTEKSLSHSPGKDDDDDDDDDD
light: B3 light
notes: Mouse IgG1 fusion variant, PAR 6; also called D10-HC-D10: D10-LC
- Kd [1]: 4.15 nM
- koff [1]: 0.00079 s⁻¹
- kon [1]: 191000 M⁻¹ s⁻¹
- IC50 (read off the curve); IL-11 release by A549 cells in response to TGF-β1 [3]: ~0.02 nM

Further binders by falling Kd [1], results first:

- Kd [1]: 6.88 nM
- koff [1]: 0.0011 s⁻¹
- kon [1]: 159000 M⁻¹ s⁻¹
- IC50 (read off the curve); IL-11 release by A549 cells in response to TGF-β1 [3]: ~0.02 nM
B4: mAb1 F16 (antibody, mouse IgG1, kappa)
heavy: B8 heavy
light: B2 light
notes: Mouse IgG1 fusion variant, PAR 4; also called D10-HC-D10: WT-LC

- Kd [1]: 5.43 nM
- koff [1]: 0.00094 s⁻¹
- kon [1]: 172000 M⁻¹ s⁻¹
- IC50 (read off the curve); IL-11 release by A549 cells in response to TGF-β1 [2]: ~0.08 nM
B6: mAb1 F7 (antibody, mouse IgG1, kappa)
heavy: B2 heavy
light: B3 light
notes: Mouse IgG1 fusion variant, PAR 4; also called HC-D10: D10-LC

- Kd [1]: 5.41 nM
- koff [1]: 0.00093 s⁻¹
- kon [1]: 171000 M⁻¹ s⁻¹
- IC50 (read off the curve); IL-11 release by A549 cells in response to TGF-β1 [3]: ~0.03 nM
B7: mAb1 F12 (antibody, mouse IgG1, kappa)
heavy: B5 heavy
light: B3 light
notes: Mouse IgG1 fusion variant, PAR 4; also called D10-HC: D10-LC

- Kd [1]: 2.51 nM
- koff [1]: 0.00085 s⁻¹
- kon [1]: 338000 M⁻¹ s⁻¹
- IC50 (read off the curve); IL-11 release by A549 cells in response to TGF-β1 [2]: ~0.2 nM
B1: mAb1 F1 (antibody, mouse IgG1, kappa)
heavy: B3 heavy
light: B2 light
notes: Recombinant version of mAb1 without D10 peptide, mouse IgG1, PAR 0; also called Fusion 1; WT
